Residue numbers refer to the chain shown, from its start. Like-named read-outs stand apart in the source and are kept apart here. Each block holds one binder with its values, some of them ahead of it.
Experiments:
[1] = biological target: T1, human DKK1 antigen (Sino Biological, 10170-H08H) (human, UniProt O94907 32-266); assay: ELISA blocking of DKK1-LRP6
T1 chain: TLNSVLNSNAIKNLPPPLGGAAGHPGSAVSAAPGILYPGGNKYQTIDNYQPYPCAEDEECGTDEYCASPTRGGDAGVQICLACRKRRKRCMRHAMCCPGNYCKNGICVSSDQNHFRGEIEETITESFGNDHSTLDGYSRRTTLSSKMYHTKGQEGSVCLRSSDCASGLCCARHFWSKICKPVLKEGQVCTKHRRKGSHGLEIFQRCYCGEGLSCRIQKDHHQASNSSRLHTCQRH

[2] = biological target: T1, human DKK1 antigen (Sino Biological, …); assay: ELISA blocking of DKK1-LRP6
[3] = biological target: T2, human DKK1 antigen (Sino Biological, 10170-H08H) (human, UniProt O94907 32-266); assay: competitive ELISA against LRP6 for DKK1
T2 construct: also called huDKK1; hDKK1
T2 sequence (looked up): T1 chain

[4] = biological target: T1, human DKK1 antigen (Sino Biological, …); assay: ELISA binding
[5] = biological target: T1, human DKK1 antigen (Sino Biological, …); assay: ELISA blocking of DKK1-LRP6

B1: chi-22 (antibody, V domains shown)
VH: QVTLKESGPGILQPSQTLSLTCSFSGFSLSTSGMGVGWIRQPSGKGLEWLAHIWWDDVKRYNPALKSRLTISKDTSSSQVFLKIASVDTTDTASYYCSRIARSPTGFAYWGQGTL
VL: QIVLTQSPVIMSASPGEKVTMTCSASSSVSYMYWYQQKPGSSPRLLIYDTSNLASGVPVRFSGSGSGTSYSLTISRMEAEDAATYYCQQWSSYPPALTFGAGTKLELK
IC50 [1]: ~0.246 µg/mL

B2: hybridoma antibody 19O15.6 (antibody, V domains shown)
VH: QIQLVQSGPELKKPGETVKISCKASGYTFTNHGMNWVKQAPGKGLKWMGWINTNTGEPTYADDFKGRFAFSLETSASTAYLQINNLKNEDTATYFCARRGYGFPYYYTMDYWGQGTSVTVSS
VL: QAVVTQESALTTSPGETVTLTCRSSTGAVTTRNYANWVQEKADHLLTGLIGGTKNRAPGVPARFSGSLIGDKAALTITGAQTEDEAKYFCALWYSNRLVFGGGTKLTVL
notes: Murine hybridoma antibody
IC50 [2]: ~10.1 µg/mL
binding result [3]: binds

B3: hybridoma antibody 18J21.1 (antibody, V domains shown)
VH: QVQLKQSGPGLVQPSQSLSITCTVSGFSLTAFDVHWVRQSPGKGLEWLGVIWIGGTTDYNGAFISRLSISKDNSKSQVFFKMNSLQAKDTAIYYCARKRGNYYNMDYWGQGTSVTVAS
VL: B2 VL with A28T, R32T, A42P, L46F, K54N, K87I, R97H, L98W
notes: Murine hybridoma antibody
binding result [3]: binds

B4: chi-29 (antibody, V domains shown)
VH: B3 VH
VL: SQAVVTQESALTTSPGETVTLTCRSSTGTVTTTNYANWVQEKPDHLFTGLIGGTNNRAPGVPARFSGSLIGDKAALTITGAQTEDEAIYFCALWYSNHWVFGGGTKLTVL
IC50 [1]: 1.43 µg/mL

B5: hybridoma antibody 11I18.4 (antibody, V domains shown)
VH: EVQLQQSGPELVKPGASVKIFCKTSGYTFTENTMHWVKQTHGKSLEWIGGINPHKGGTSYNQKFKGKATLTVDKSSSTACMELRSLTSEDSTVYYCARDWLGAMDYWGQGTSVTVSP
VL: ETTVTQSPASLSMAIGEKVTIRCITSTDIDDDMNWYQQKPGEPPKLLISEGNTLRPGVPSRFSSSGYGTDFVFTIENMLSEDVADYYCLQSDNLPYTFGGGTKLEIK
notes: Murine hybridoma antibody
IC50 [2]: 0.459 µg/mL
binding result [3]: binds

B8: BHQ-880 (antibody, V domains shown)
VH: QVQLVESGGGLVQPGGSLRLSCAASGFTFSSYWMSWVRQAPGKGLEWVSGISYSGSNTHYADSVKGRFTISRDNSKNTLYLQMNSLRAEDTAVYYCARMGIDLDYWGQGTLVTVSS
VL: DIALTQPASVSGSPGQSITISCTGTSSDVGGFNYVSWYQQHPGKAPKLMIHDGSNRPSGVSNRFSGSKSGNTASLTISGLQAEDEADYYCQSWDVSPITAVFGGGTKLTVLG
IC50 [2]: 1.1 µg/mL

B9: humanized antibody hu2 (antibody, V domains shown)
VH: EVQLLQSAAEVKRPGESLRISCKTSGYTFTEYTMHWVRQMPGKELEWMGVIDPSNGDTSYNQKFKGHVTISADKSSSTAYLQWSSLKASDAAMYYCSSTTGPWFASWGQGTLVTVSS
VL: DIQMTQSPSSLSASVGDRVTITCRASQDISNYLNWYQQKPGKAPKLLIYYKSRLHSGVPSRFSGSGSGTDFTLTISSLQPEDFATYYCQQVHTLPPTFGQGTKLEIKR
EC50 [4]: 0.01 µg/mL
IC50 [5]: 0.193 µg/mL

B11: hybridoma antibody 7M2.6 (antibody, V domains shown)
VH: EVQLQQSGPELVKPGASVRISCKTSGYTFTEYTMHWVKQSHGKSLEWIGVIDPSNGDTSYNQKFKGRATLTVDKSSSTAYMDLRSLTSEDSALYYCSSTTGPWFACWGQGTLVTVSA
VL: DIQMTQTTSSLSASLGDRVTINCRASQDISNYLNWYQQKPDGTVKLLIYYKSRLHSGVPTRFSGSGSGTDFSLTISNLVQEDIATYFCQQVHTLPPTFGGGTKLEIK
notes: Murine hybridoma antibody
IC50 [2]: 0.892 µg/mL
binding result [3]: binds

B14: humanized antibody hu50 (antibody, V domains shown)
VH: QVQLVQSGAEVKKPGASVKVSCKASGYTFTSYNMLWVRQAPGQRLEWMGVIFPGNGDTSYNPKFKGRVTLTADKSSSTAYMELSSLRSEDTAVYYCARDGYPSMDYWGQGTLVTVSS
VL: DIQMTQSPSSVSASVGDRVTITCITSTDIDDDMNWYQQKPGKAPKLLISEGNSLRPGVPSRFSGSGSGTDFTLTISSLQPEDFATYYCLQFNNMPLTFGQGTKLEIKR
EC50 [4]: 0.0234 µg/mL
IC50 [5]: 0.239 µg/mL

The next lines start with the values.

IC50 [1]: 1.79 µg/mL
B6: chi-2 (antibody, V domains shown)
VH: B5 VH
VL: MSSAQFLGLLLLCFQGTRCDIQMTQTTSSLSASLGDRVTINCRASQDISNYLNWYQQKPDGTVKLLIYYKSRLHSGVPTRFSGSGSGTDFSLTISNLVQEDIATYFCQQVHTLPPTFGGGTKLEIK

IC50 [2]: 0.529 µg/mL
binding result [3]: binds
B7: hybridoma antibody 17F14.3 (antibody, V domains shown)
VH: QVQLQQPGAELVKPGASVKMSCKASGYTFTSYNMLWVKQTPGQGLEWIGVIFPGNGDTSYNPKFKGKAALTADKSSSTAYMQLSSLTSEDSAVYYCARDGYPSMDYWGQGTSVTVSS
VL: ETIVTQSPASLSVATGEKVTIRCITSTDIDDDMNWYQQKPGEPPKLLISEGNSLRPGVPSRFSSSGYGTDFVFTIENTLSEDVADYYCLQFNNMPLTFGAGTKLELK
notes: Murine hybridoma antibody

EC50 [4]: 0.0138 µg/mL
IC50 [5]: 0.169 µg/mL
B10: humanized antibody hu3 (antibody, V domains shown)
VH: B9 VH
VL: EIVMTQSPPTLSLSPGERVTLSCRASQDISNYLNWYQQKPGQAPRLLIYYKSRLHSGIPARFSGSGSGTDFTLTISSLQPEDFAVYYCQQVHTLPPTFGQGTKLEIKR

EC50 [4]: 0.0222 µg/mL
IC50 [5]: 0.176 µg/mL
B12: humanized antibody hu64 (antibody, V domains shown)
VH: B14 VH with A16S, R44G
VL: B14 VL with I2T, M4L, S10F, V11L, G64S, D70E

EC50 [4]: 0.0238 µg/mL
IC50 [5]: 0.155 µg/mL
B13: humanized antibody hu52 (antibody, V domains shown)
VH: B14 VH
VL: B14 VL with I2T, M4L, S10F, V11L, G64S, D70E

Source: US20250122271A1, “ANTI-DKK1 ANTIBODY, PHARMACEUTICAL COMPOSITION THEREOF, AND USE THEREOF” (SHANGHAI JUNSHI BIOSCIENCES CO., LTD., priority 2022, published 2025)
